Test [1] addresses T1, recombinant PD-L1 extracellular domain fused to the mouse IgG1 Fc domain (SinoBiologicals) (human; mouse, UniProt Q9NZQ7 19-238).
T1 construct: extracellular domain; also called human PD-L1-mouse Fc; PD-L1-mouse Fc protein; not shown: mouse IgG1 Fc domain
In words: BLI (Octet), PD-L1-mouse Fc on the sensor, VHH dilution series, as described above. As to the method: (§1) Affinities of resulting variants were measured using the bio-layer interferometry technology on an Octet Red 96 instrument (ForteBio). In brief, recombinant PD-L1 extracellular domain fused to the mouse IgG1 Fc domain (SinoBiologicals) was immobilized on anti-murine IgG quantitation (AMQ) biosensors (ForteBio). Loaded sensors were incubated with a serial dilution of PD-L1 VHH variant, association and dissociation monitored and kinetic parameters were calculated using the Octet Data Analysis software v10 (ForteBio).
(In general: In BLI a coated tip is dipped into the sample, and binding shifts an interference pattern.)

In test [2] the target is T1, recombinant PD-L1 extracellular domain …. As to the kind of experiment: BLI (Octet Red 96), PD-L1-mouse IgG1 Fc on AMQ biosensors, VHH dilution series. As to the method:
as §1
(§2) The aspartic acid at position 1 was included to avoid the risk of pyroglutamate formation. […] Resulting mutants were purified and affinities measured as described in Example 1.

For test [3] the target is unchanged. In words: BLI (Octet Red 96); ratio of the printed KDs, variant over 2LIG189. The procedure: as §1, §2
Test [4] shares this target. In words: BLI (Octet Red 96), PD-L1-mouse IgG1 Fc on AMQ biosensors, VHH dilution series. As to the method: as §1
This is another data set of the same source.

For test [5] the target is unchanged. As to the kind of experiment: BLI (Octet), recombinant PD-L1-mouse Fc on the sensor, VHH dilution series. As to the method: as §1
The isomerization motif in all these variants was removed by the D54G mutation. Variants were produced as described above and affinity measured on an Octet instrument using the recombinant PD-L1-mouse Fc protein.

The target is the same in test [6]. As to the kind of experiment: BLI (Octet Red 96); ratio of the printed KDs, 2LIG99 over variant. As to the method: as §1

T1 sequence (Q9NZQ7 19-238): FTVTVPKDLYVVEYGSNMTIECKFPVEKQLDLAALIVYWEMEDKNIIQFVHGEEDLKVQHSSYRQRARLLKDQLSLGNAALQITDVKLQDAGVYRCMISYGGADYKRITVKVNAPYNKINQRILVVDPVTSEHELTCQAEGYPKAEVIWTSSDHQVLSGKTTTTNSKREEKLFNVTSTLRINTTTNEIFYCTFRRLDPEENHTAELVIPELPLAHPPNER

B1: 2LIG189 VHH (VHH, not shown: small tags and cut ends)
VHH: QVQLQESGGGLVQAGGSLRLSCAASGKIFSGNDMGWYRQAPGKQRELVGIITSGGITDYADAVKGRFTISRDNAKNMMYLQMNSLKPEDTAVYYCNMRDRTIWWGQGTQVTVSS
notes: Parental PD-L1 VHH; stands here as the molecule on which the mutations are counted; also called wild-type 2LIG189
Turning to B1, in test [1], the Kd (commonly the concentration at which binding is half-saturated) stood at 5.41 nM; the off-rate (koff) – broadly, a measure of how fast the partners let go of each other – came to 0.00131 s⁻¹; the kon (usually a measure of how fast the partners come together) worked out at 243000 M⁻¹ s⁻¹. Further, in test [2], the Kd worked out at 0.791 nM, the koff turned out to be 0.000148 s⁻¹ and the kon was determined as 187000 M⁻¹ s⁻¹.

B2: 2LIG189_OPT3 (VHH)
VHH: DVQLVESGGGLVQPGGSLRLSCAASGKIFSGNDMGWYRQAPGKQRELVGIITSGGITDYADAVKGRFTISRDNSKNMVYLQMNSLRPEDTAVYYCNMRDRTIWWGQGTLVTVSS
With B2, in test [2], the Kd was 4.89 nM, the off-rate (koff) was 0.000942 s⁻¹ and the kon came to 193000 M⁻¹ s⁻¹. Besides, the “Ratio KD” value in test [3] is 6.18.

B3: 2LIG189_OPT4 (VHH)
VHH: DVQLVESGGGLVQPGGSLRLSCAASGKIFSGNDMGWYRQAPGKQRELVGIITSGGITDYADAVKGRFTISRDNSKNTVYLQMNSLRPEDTAVYYCNMRDRTIWWGQGTLVTVSS
On to B3, for which, in test [2], the Kd was 1.74 nM, the koff came to 0.000301 s⁻¹ and the association rate constant (kon) amounted to 174000 M⁻¹ s⁻¹. For the same molecule, the “Ratio KD” value in test [3] came out at 2.19.

B4: SEQ ID NO: 73 (2LIG189 humanization variant with deamidation and oxidation risk sites removed) (VHH)
VHH: DVQLVESGGGLVQPGGSLRLSCAASGKIFSGNHMGWYRQAPGKQRELVGIITSGGITDYADAVKGRFTISRDNSKNTVYLQMNSLRPEDTAVYYCNIRDRTIWWGQGTLVTVSS
notes: also called 2LIG189 second wave variant
Take B4: in test [1], the Kd was found to be 0.555 nM, the koff was determined as 0.000329 s⁻¹ and the on-rate constant (kon) was determined as 593000 M⁻¹ s⁻¹.

B5: 2LIG189_OPT_N32R_M97V (VHH)
VHH: DVQLVESGGGLVQPGGSLRLSCAASGKIFSGRDMGWYRQAPGKQRELVGIITSGGITDYADAVKGRFTISRDNSKNTVYLQMNSLRPEDTAVYYCNVRDRTIWWGQGTLVTVSS
Take B5: in test [1], the Kd came to 3.38 nM, the koff turned out to be 0.00056 s⁻¹ and the on-rate constant (kon) was determined as 166000 M⁻¹ s⁻¹.

B6: 2LIG189_N32Y (VHH)
VHH: QVQLQESGGGLVQAGGSLRLSCAASGKIFSGYDMGWYRQAPGKQRELVGIITSGGITDYADAVKGRFTISRDNAKNMMYLQMNSLKPEDTAVYYCNMRDRTIWWGQGTQVTVSS
With B6, in test [2], the dissociation constant (Kd) was 2.04 nM, the koff is 0.000629 s⁻¹ and the on-rate (kon) stood at 308000 M⁻¹ s⁻¹. In test [3], the “Ratio KD” value was determined as 2.58.

B7: 2LIG189_OPT_N32R_M97I (VHH)
VHH: DVQLVESGGGLVQPGGSLRLSCAASGKIFSGRDMGWYRQAPGKQRELVGIITSGGITDYADAVKGRFTISRDNSKNTVYLQMNSLRPEDTAVYYCNIRDRTIWWGQGTLVTVSS
Take B7: in test [1], the Kd was determined as 2.32 nM, the koff is 0.000457 s⁻¹ and the on-rate constant (kon) worked out at 197000 M⁻¹ s⁻¹.

B8: 2LIG189_OPT1 (VHH)
VHH: DVQLVESGGGLVQPGGSLRLSCAASGKIFSGNDMGWYRQAPGKQRELVGIITSGGITDYADAVKGRFTISRDNSKNMMYLQMNSLRPEDTAVYYCNMRDRTIWWGQGTLVTVSS
Regarding B8, in test [2], the dissociation constant Kd worked out at 6.92 nM, the off-rate (koff) was found to be 0.000497 s⁻¹ and the association rate constant (kon) was 71800 M⁻¹ s⁻¹. Besides, in test [3], the “Ratio KD” value turned out to be 8.75.

B9: 2LIG189_OPT_N32R (VHH)
VHH: DVQLVESGGGLVQPGGSLRLSCAASGKIFSGRDMGWYRQAPGKQRELVGIITSGGITDYADAVKGRFTISRDNSKNTVYLQMNSLRPEDTAVYYCNMRDRTIWWGQGTLVTVSS
For B9, in test [1], the Kd was 1.94 nM, the off-rate constant (koff) was found to be 0.000731 s⁻¹ and the kon came to 377000 M⁻¹ s⁻¹.

B10: 2LIG189_OPT2 (VHH)
VHH: DVQLVESGGGLVQPGGSLRLSCAASGKIFSGNDMGWYRQAPGKQRELVGIITSGGITDYADAVKGRFTISRDNSKNTMYLQMNSLRPEDTAVYYCNMRDRTIWWGQGTLVTVSS
Regarding B10, in test [2], the Kd was 1.28 nM, the koff came to 0.000299 s⁻¹ and the on-rate constant (kon) came out at 234000 M⁻¹ s⁻¹. The “Ratio KD” value in test [3] was found to be 1.62.

B11: 2LIG189_OPT_D33H (VHH)
VHH: DVQLVESGGGLVQPGGSLRLSCAASGKIFSGNHMGWYRQAPGKQRELVGIITSGGITDYADAVKGRFTISRDNSKNTVYLQMNSLRPEDTAVYYCNMRDRTIWWGQGTLVTVSS
Turning to B11, in test [1], the equilibrium dissociation constant (Kd) turned out to be 0.324 nM, the koff turned out to be 0.000145 s⁻¹ and the kon was 446000 M⁻¹ s⁻¹.

B12: 2LIG99 VHH (VHH)
VHH: QVQLQESGGGLVQAGGSLRLSCTASGTIFSINRMDWFRQAPGKQRELVALITSDGTPAYADSAKGRFTISRDNTKKTVSLQMNSLKPEDTAVYYCHVSSGVYNYWGQGTQVTVSS
notes: Parental PD-L1 VHH; stands here as the molecule on which the mutations are counted; also called wild-type 2LIG99; not shown: C-terminal His-tag
Regarding B12, in test [4], the dissociation constant Kd stood at 0.282 nM, the dissociation rate constant (koff) amounted to 0.000447 s⁻¹ and the kon is 1.58e+06 M⁻¹ s⁻¹. Also, in test [5], the equilibrium dissociation constant (Kd) was determined as 0.719 nM, the koff worked out at 0.000721 s⁻¹ and the kon was 1e+06 M⁻¹ s⁻¹.

B13: 2LIG99_D55K (VHH)
VHH: QVQLQESGGGLVQAGGSLRLSCTASGTIFSINRMDWFRQAPGKQRELVALITSKGTPAYADSAKGRFTISRDNTKKTVSLQMNSLKPEDTAVYYCHVSSGVYNYWGQGTQVTVSS
Take B13: the “Ratio KD” value in test [6] amounted to 0.61. In addition, in test [4], the Kd turned out to be 0.459 nM, the koff was determined as 0.0007 s⁻¹ and the kon is 1.53e+06 M⁻¹ s⁻¹.

B14: P-2055: 2LIG99_OPT_D54G_K76N_S79Y (Q1D_Q5V_A14P_D54G_T74S_K76N_K86R_S79Y_Q110L) (VHH)
VHH: DVQLVESGGGLVQPGGSLRLSCTASGTIFSINRMDWFRQAPGKQRELVALITSGGTPAYADSAKGRFTISRDNSKNTVYLQMNSLRPEDTAVYYCHVSSGVYNYWGQGTLVTVSS
notes: not shown: C-terminal His-tag ('produced as described above')
B14: in test [5], the Kd turned out to be 0.0445 nM, the koff was determined as 5.52e-05 s⁻¹ and the kon came out at 1.24e+06 M⁻¹ s⁻¹.

B15: 2LIG99_OPT_D54G_A63V (VHH)
VHH: DVQLVESGGGLVQPGGSLRLSCTASGTIFSINRMDWFRQAPGKQRELVALITSGGTPAYADSVKGRFTISRDNSKKTVSLQMNSLRPEDTAVYYCHVSSGVYNYWGQGTLVTVSS
Turning to B15, in test [5], the equilibrium dissociation constant (Kd) worked out at 1.16 nM, the koff turned out to be 0.00151 s⁻¹ and the association rate constant (kon) is 1.3e+06 M⁻¹ s⁻¹.

B16: P-2056: 2LIG99_OPT_D54G_A63V_K76N_S79Y (Q1D_Q5V_A14P_D54G_A63V_T74S_K76N_K86R_S79Y_Q110L) (VHH)
VHH: DVQLVESGGGLVQPGGSLRLSCTASGTIFSINRMDWFRQAPGKQRELVALITSGGTPAYADSVKGRFTISRDNSKNTVYLQMNSLRPEDTAVYYCHVSSGVYNYWGQGTLVTVSS
notes: as for B14
Regarding B16, in test [5], the dissociation constant (Kd) came out at 0.735 nM, the off-rate constant (koff) was 0.000677 s⁻¹ and the kon was 921000 M⁻¹ s⁻¹.

B17: P-2051: 2LIG99_OPT_D54G_K76N (Q1D_Q5V_A14P_D54G_T74S_K76N_K86R_Q110L) (VHH)
VHH: DVQLVESGGGLVQPGGSLRLSCTASGTIFSINRMDWFRQAPGKQRELVALITSGGTPAYADSAKGRFTISRDNSKNTVSLQMNSLRPEDTAVYYCHVSSGVYNYWGQGTLVTVSS
notes: as for B14
With B17, in test [5], the equilibrium dissociation constant (Kd) turned out to be 0.358 nM, the dissociation rate constant (koff) was determined as 0.000599 s⁻¹ and the on-rate (kon) worked out at 1.67e+06 M⁻¹ s⁻¹.

B18: 2LIG99_OPT_D54G (VHH)
VHH: DVQLVESGGGLVQPGGSLRLSCTASGTIFSINRMDWFRQAPGKQRELVALITSGGTPAYADSAKGRFTISRDNSKKTVSLQMNSLRPEDTAVYYCHVSSGVYNYWGQGTLVTVSS
B18: in test [5], the dissociation constant (Kd) stood at 0.553 nM, the off-rate (koff) was 0.000856 s⁻¹ and the on-rate constant (kon) was 1.55e+06 M⁻¹ s⁻¹.

B19: P-2053: 2LIG99_OPT_D54G_A63V_K76N (Q1D_Q5V_A14P_D54G_A63V_T74S_K76N_K86R_Q110L) (VHH)
VHH: DVQLVESGGGLVQPGGSLRLSCTASGTIFSINRMDWFRQAPGKQRELVALITSGGTPAYADSVKGRFTISRDNSKNTVSLQMNSLRPEDTAVYYCHVSSGVYNYWGQGTLVTVSS
notes: as for B14
Turning to B19, in test [5], the Kd was determined as 0.602 nM, the off-rate (koff) stood at 0.00112 s⁻¹ and the kon is 1.87e+06 M⁻¹ s⁻¹.

B20: P-2054: 2LIG99_OPT_D54G_A63V_S79Y (Q1D_Q5V_A14P_D54G_A63V_T74S_K86R_S97Y_Q110L) (VHH)
VHH: DVQLVESGGGLVQPGGSLRLSCTASGTIFSINRMDWFRQAPGKQRELVALITSGGTPAYADSVKGRFTISRDNSKKTVYLQMNSLRPEDTAVYYCHVSSGVYNYWGQGTLVTVSS
notes: The mutation list prints S97Y where the name prints S79Y; not shown: C-terminal His-tag ('produced as described above')
On to B20, for which, in test [5], the Kd worked out at 0.427 nM, the dissociation rate constant (koff) came to 0.000779 s⁻¹ and the kon is 1.83e+06 M⁻¹ s⁻¹.

B21: P-2052: 2LIG99_OPT_D54G_S79Y (Q1D_Q5V_A14P_D54G_T74S_S79Y_K86R_Q110L) (VHH)
VHH: DVQLVESGGGLVQPGGSLRLSCTASGTIFSINRMDWFRQAPGKQRELVALITSGGTPAYADSAKGRFTISRDNSKKTVYLQMNSLRPEDTAVYYCHVSSGVYNYWGQGTLVTVSS
notes: as for B14
Turning to B21, in test [5], the equilibrium dissociation constant (Kd) was 0.182 nM, the off-rate constant (koff) is 0.000279 s⁻¹ and the on-rate (kon) was determined as 1.54e+06 M⁻¹ s⁻¹.

For the origin of these results see patent US20230002493A1 (ORIONIS BIOSCIENCES, published 2023).
